Test results from the FLAb antibody collection.

Assay: patients with anti-drug antibodies; higher = more immunogenic

Protein | patients with anti-drug antibodies [%]
unnamed (protein) chain 1: EVQLQQSGPDLVKPGASVKISCKASGYSFTGYYMHWVKQSPGKGLEWIGRINPNNGVTLYNQKFKDKATLTVDKSSTTAYMELRSLTSEDSAVYYCARSTMITNYVMDYWGQGTSVTVSS chain 2: SIVMTQTPTSLLVSAGDRVTITCKASQSVSNDVAWYQQKPGQSPKLLISYTSSRYAGVPDRFSGSGYGTDFTLTISSVQAEDAAVYFCQQDYNSPPTFGGGTKLEIK | 72.5
unnamed (protein) chain 1: QVQLVQSGAEVKKPGASVKVSCKVSGYTLTELSIHWVRQAPGKGLEWMGGFDPEENEIVYAQRFQGRVTMTEDTSTDTAYMELSSLRSEDTAVYYCAIVGSFSPLTLGLWGQGTMVTVSS chain 2: QSVLTQPPSVSGAPGQRVTISCTGSGSNIGAPYDVSWYQQLPGTAPKLLIYHNNKRPSGVPDRFSGSKSGTSASLAITGLQAEDEADYYCATVEAGLSGSVFGGGTKLTVL | 3.1
unnamed (protein) chain 1: EVQLVESGGGLVKPGGSLKLSCAASGFAFSIYDMSWVRQTPEKCLEWVAYISSGGGTTYYPDTVKGRFTISRDNAKNTLYLQMSSLKSEDTAMYYCARHSGYGTHWGVLFAYWGQGTLVTVSA chain 2: DIQMTQTTSSLSASLGDRVTISCRASQDISNYLNWYQQKPDGTVKLLIYYTSILHSGVPSRFSGSGSGTDYSLTISNLEQEDFATYFCQQGNTLPWTFGCGTKLEI | 59
unnamed (protein) chain 1: QVQLQQPGAELVEPGGSVKLSCKASGYTFTSHWMHWVKQRPGQGLEWIGEINPSSGRNNYNEKFKSKATLTVDKSSSTAYMQFSSLTSEDSAVYYCVRYYGYDEAMDYWGQGTSVTVSS chain 2: DIVMTQAAFSNPVTLGTSASISCRSSKSLLHSNGITYLYWYLQKPGQSPQLLIYQMSNLASGVPDRFSSSGSGTDFTLRISRVEAEDVGVYYCAQNLELPYTFGGGTKLEIK | 0
unnamed (protein) chain 1: QVQLVQSGAEVKKPGASVKVSCKAFGYPFTDYLLHWVRQAPGQGLEWVGWLNPYSGDTNYAQKFQGRVTMTRDTSISTAYMELSRLRSDDTAVYYCTRTTLISVYFDYWGQGTMVTVSS chain 2: DIQMTQSPSSVSASVGDRVTIACRASQNIRNILNWYQQRPGKAPQLLIYAASNLQSGVPSRFSGSGSGTDFTLTINSLQPEDFATYYCQQSYSMPRTFGGGTKLEIK | 0.9
unnamed (protein) chain 1: QVTLRESGPALVKPTQTLTLTCTVSGFSLTSYSVHWVRQPPGKGLEWLGVIWASGGTDYNSALMSRLSISKDTSRNQVVLTMTNMDPVDTATYYCARDPPSSLLRLDYWGRGTPVTVSS chain 2: DIVMTQSPDSLAVSLGERATINCKSSQSLLNSGNQKNYLAWYQQKPGQPPKLLIYGASTRESGVPDRFSGSGSGTDFTLTISSLQAEDVAVYYCQNVHSFPFTFGGGTKLEIK | 13
unnamed (protein) chain 1: EVQLVESGGDLVQPGRSLRLSCAASGFIFSNYGMSWVRQAPGKGLEWVATISSASTYSYYPDSVKGRFTISRDNAKNSLYLQMNSLRVEDTALYYCGRHSDGNFAFGYWGQGTLVTVSS chain 2: DVLMTQSPLSLPVTPGEPASISCRSSRNIVHINGDTYLEWYLQKPGQSPQLLIYKVSNRFSGVPDRFSGSGSGTDFTLKISRVEAEDVGVYYCFQGSLLPWTFGQGTKVEIK | 4.2
unnamed (protein) chain 1: QVTLRESGPALVKPTQTLTLTCTFSGFSLSTAGMSVGWIRQPPGKALEWLADIWWDDKKHYNPSLKDRLTISKDTSKNQVVLKVTNMDPADTATYYCARDMIFNFYFDVWGQGTTVTVSS chain 2: DIQMTQSPSTLSASVGDRVTITCSASSRVGYMHWYQQKPGKAPKLLIYDTSKLASGVPSRFSGSGSGTEFTLTISSLQPDDFATYYCFQGSGYPFTFGGGTKVEIK | 1.5
unnamed (protein) chain 1: QVQLVQSGAEVKKPGASVKVSCKASGYTFTSHWMHWVRQAPGQGLEWIGEFNPSNGRTNYNEKFKSKATMTVDTSTNTAYMELSSLRSEDTAVYYCASRDYDYDGRYFDYWGQGTLVTVSS chain 2: DIQMTQSPSSLSASVGDRVTITCSASSSVTYMYWYQQKPGKAPKLLIYDTSNLASGVPSRFSGSGSGTDYTFTISSLQPEDIATYYCQQWSSHIFTFGQGTKVEIK | 10
unnamed (protein) chain 1: QVQLQESGPGLVKPSETLSLTCTVSGFSLLSYGVHWVRQPPGKGLEWLGVIWTGGTTNYNSALMSRFTISKDDSKNTVYLKMNSLKTEDTAIYYCARYYYGMDYWGQGTLVTVSS chain 2: DIQMTQSPSSLSASVGDRVTITCKASQDVRNTVAWYQQKPGKAPKLLIYSSSYRNTGVPDRFSGSGSGTDFTLTISSLQAEDVAVYYCQQHYITPYTFGGGTKVEIK | 21.2
